From US20070167369A1, “Novel use of isolated polypeptide comprising four FAS-1 domains, EM1 domain and RGD motif” (KYUNGPOOK NATIONAL UNIVERSITY INDUSTRY-ACADEMIC COOPERATION …, priority 2004, published 2007)

Tests used:
[1] = tested on: B16F10 tumor microvessels; assay: Intratumoral microvessel density, CD31 immunostaining (Example 15-2); type: in vivo, BALB/c nude mice; conditions: B16F10 tumors of treated mice
Experimental: To determine whether the reduced size of the indicated protein-treated tumors coincides with reduced neovascularization, the present inventors used six representative tumors to quantify the density of microvessels after immunostaining with CD31 antibody.
Concretly, intratumoral microvessel density (MVD) was analyzed on paraffin sections of B16F10 tumor using a rat anti-mouse CD31 monoclonal antibody (PharMingen, San Diego, Calif.). Immunoperoxidase staining was done using the Vectastain avidin-biotin complex Elite reagent kit (Vector Laboratories, Burlingame, Calif.). Sections were counterstained with Hematoxyline. MVD was assessed initially by scanning the tumor at low power, followed by identification of four areas at the tumor periphery containing the maximum number of discrete microvessels, and counting individual microvessels at a high power field (x200). Each group consisted of six or eight tumor tissue.

[2] = tested on: HUVECs; assay: Migration of endothelial cells to vitronectin, transwell (Example 13-2); type: cell-based, human; conditions: for IC50: read-out: half-inhibition of migration toward vitronectin observed at; for inhibition of migration to vitronectin: various concentrations, 4 to 6 hours
Experimental: Cell migration assays were done in transwell plates (8 μm pore size, Costar, Cambridge, Mass.). The undersurface of the membrane was coated with 5 μg/ml of vitronectin at 4° C. and blocked for 1 hour at room temperature with PBS containing 2% BSA. HUVECs were suspended in medium at a density of 3×10^5 cells/ml, and 0.1 ml of the cell suspension was pre-incubated with or without the indicated concentration of the truncated βig-h3, the fas-1 domain and Regenin for 40 min at 37° C., then added to the upper compartment of the filter. Cells were allowed to migrate for 4 to 6 hours at 37° C. The filters were fixed with 8% glutaraldehyde and stained with crystal violet, and non-migrating cells on the upper surface of the filter were removed by wiping with a cotton swab. The extent of cell migration was determined by light microscopy, and within each well, counting was done in nine randomly selected microscopic high power fields (x200).

[3] = tested on: HUVECs; assay: Endothelial cell adhesion to plates coated with βig-h3 or its fas-1 domains (Example 2); type: cell-based, human; conditions: plate coated with 10 μg/ml protein; absorbance 405 nm
Experimental: Cell adhesion assay was performed according to the method described by Kim, J.-E. et al., J. Biol. Chem., 277:46159-46165, 2002. For this purpose, 10 μg/ml of each of the recombinant proteins (βig-h3 His-1-b, βig-h3 D-I, βig-h3 D-II, βig-h3 D-III and βig-h3 D-IV) prepared in Example 1 was placed into a flat-bottomed 96-well ELISA (enzyme-linked immunosorbent assay) plate (Costar, Corning Inc., NY) and then incubated overnight at 4° C., to coat the surface of the plate. As a control, 2% BSA was coated on the plate. Then, the plate was treated with PBS (phosphate-buffered saline) containing 2% BSA, and blocked at room temperature for one hour.
Meanwhile, HUVECs (human umbilical vein endothelial cells; Clonetics, San Diego, Calif.) were incubated in EGM medium (Clonetics, San Diego, Calif.) containing 2% FBS (Fetal Bovine Serum) under a condition of 37° C. and 5% CO2. The incubated cells were suspended in medium at a density of 3×10^5 cells/ml, and 0.1 ml of the cell suspension was added to each well of the plate. Next, the cells were incubated at 37° C. for 30 minutes and washed one time with PBS buffer to remove cells which had not been attached to the plate. […] The absorbance was measured at a 405-nm in a Bio-Rad model 550 microplate reader. Here, the higher the number of cells adhered to the plate, the higher the absorbance.

[4] = tested on: HUVECs; assay: Endothelial tube formation in Matrigel (Example 14); type: cell-based, human; conditions: for 70%-inhibition of tube formation observed at: concentration giving 70% inhibition; for inhibition of tube formation: various concentrations, 6 to 10 hours
Experimental: Matrigel (Chemicon, International Inc, Temecula, Calif.) was added (100 μl) into each well of a 96-well plate and polymerized for 30 minutes at 37° C. HUVECs were suspended in medium at a density of 3×10^5 cells/ml, and 0.1 ml of the cell suspension was pre-incubated with or without the indicated concentration of the truncated βig-h3, the fas-1 domain and Regenin for 40 min at 37° C., then seeded on the surface of the Matrigel. Cells were incubated for 6 to 10 hours at 37° C. The cells were then photographed, and branch points from 4 high-power fields (x200) were counted and averaged.

[5] = tested on: Murine melanoma cells (B16F10) tumor; assay: B16F10 tumor growth in BALB/c nude mice (Example 15-1); type: in vivo; conditions: for tumor growth inhibition compared with control: i.p. everyday from 7 days after inoculation
Experimental: Murine melanoma cells (B16F10) were cultured in RPMI 1640 containing 25 mM/L HEPES with 10% fetal bovine serum. Male BALB/c nude mice (5-6 weeks old) were implanted with 1×10^6 B16F10 cells into the flank subcutis and monitored tumor growth and neovascularization after systemic treatment with exogenous fas-1 domain (5 μM) or truncated βig-h3 (50 nM or 10 nM). Experimental groups were i.p. injected everyday from 7 days after tumor cell inoculation with the indicated concentration of fas-1 domain or truncated βig-h3 in a total volume of 0.1 ml PBS. The control group was given an equal volume of PBS each day. Each experimental group consisted of six to eight mice. Tumor sizes were measured using Vernier calipers every 2 to 3 days, and the measured values were substituted in the following equation (2) to calculate the volumes of the tumor. Volume of tumor=width^2×length×0.52. [Equation 2]
Wherein, ‘width’ is the shortest diameter.

[6] = tested on: HUVEC; assay: Adhesion of endothelial cells to vitronectin (Example 13-1); type: cell-based, human
Experimental: Flat-bottomed 96-well ELISA plates (Costar, Corning, Inc., NY) were incubated overnight at 4° C. with 5 μg/ml of vitronectin (Promega, Madison, Wis.) and blocked for 1 hour at room temperature with PBS containing 2% bovine serum albumin (BSA).
Primary human umbilical vein endothelial cells (HUVEC) were cultured at 37° C. in 5% CO2 in M199 medium supplemented with 20% fetal bovine serum. For all the experiments, HUVECs were used at passage 4 or less. HUVEC cells were suspended in medium at a density of 3×10^5 cells/ml, and 0.1 ml of the cell suspension was pre-incubated with or without the indicated concentration of the truncated βig-h3, the fas-1 domain and Regenin for 40 min at 37° C., then added to each well of the coated. After incubation for 5 to 10 minutes at 37° C., unattached cells were removed by rinsing with PBS. Attached cells were then incubated for 1 hour at 37° C. in 50 mM citrated buffer (pH 5.0) containing 3.75 mM p-nitrophenyl-N-acetyl-Dglycosamide and 0.25% Triton X-100. Enzyme activity was blocked by adding 50 mM glycine buffer (pH 10.4) containing 5 mM EDTA, and the absorbance was measured at 405 nm in a Bio-Rad model 550 microplate reader.

[7] = various concentrations, vitronectin 5 μg/ml

Row | Molecule | CD31-positive microvessels in tumor (intratumoral microvessel density) [1] | inhibition of migration of endothelial cells to vitronectin ([2]; 500 nM) | IC50 [2] [nM] | inhibition of migration to vitronectin [2] | adhesion of endothelial cells to coated protein [3] | 70%-inhibition of tube formation observed at [4] [nM] | inhibition of tube formation [4] | tumor growth inhibition ([5]; 10 nM (68 μg/kg), i.p. everyday) | tumor growth inhibition compared with control ([5]; 50 nM (340 μg/kg)) | inhibition of adhesion to vitronectin ([6]; 500, 50 and 10 nM) | inhibition of adhesion to vitronectin [6, 7] | tumor growth inhibition compared with control ([5]; 5 μM (10 mg/kg)) | inhibition of adhesion to vitronectin ([6]; 500 nM)
1 | truncated βig-h3: recombinant human βig-h3 with EMI domain, all four fas-1 domains and RGD motif; residues 68-653 of SEQ ID NO: 1 (SEQ ID NO: 66) (protein, listed as Homo sapiens) WYQRKICGKSTVISYECCPGYEKVPGEKGCPAALPLSNLYETLGVVGSTTTQLYTDRTEKLRPEMEGPGSFTIFAPSNEAWASLPAEVLDSLVSNVNIELLNALRYHMVGRRVLTDELKHGMTLTSMYQNSNIQIHHYPNGIVTVNCARLLKADHHATNGVVHLIDKVISTITNNIQQIIEIEDTFETLRAAVAASGLNTMLEGNGQYTLLAPTNEAFEKIPSETLNRILGDPEALRDLLNNHILKSAMCAEAIVAGLSVETLEGTTLEVGCSGDMLTINGKAIISNKDILATNGVIHYIDELLIPDSAKTLFELAAESDVSTAIDLFRQAGLGNHLSGSERLTLLAPLNSVFKDGTPPIDAHTRNLLRNHIIKDQLASKYLYHGQTLETLGGKKLRVFVYRNSLCIENSCIAAHDKRGRYGTLFTMDRVLTPPMGTVMDVLKGDNRFSMLVAAIQSAGLTETLNREGVYTVFAPTNEAFRALPPRERSRLLGDAKELANILKYHIGDEILVSGGIGALVRLKSLQGDKLEVSLKNNVVSVNKEPVAEPDIMATNGVVHVITNVLQPPANRPQERGDELADSALEI | decrease in CD31-positive microvessels | strongly suppressed | 50 | dose-dependent inhibition | mediated the adhesion of endothelial cells | 50 | dose-dependent inhibition | inhibitory effect of tumor growth | equivalent levels of tumor growth inhibition | clear dose-response effect | dose-dependent inhibition | – | –
2 | fas-1 domain: recombinant protein containing the fourth fas-1 domain of human βig-h3 (SEQ ID NO: 64) (protein, listed as Homo sapiens) MGTVMDVLKGDNRFSMLVAAIQSAGLTETLNREGVYTVFAPTNEAFRALPPRERSRLLGDAKELANILKYHIGDEILVSGGIGALVRLKSLQGDKLEVSLKNNVVSVNKEPVAEPDIMATNGVVHVITNVL | – | – | 5000 | dose-dependent inhibition | – | 5000 | dose-dependent inhibition | – | – | – | dose-dependent inhibition | equivalent levels of tumor growth inhibition | ineffective
